The data set deals with the molecule itself. In words: SEC. In general terms: SEC sorts molecules by how far they enter the pores of the column.

Broadly, the stoichiometry N is a count of units in the complex or per binding partner.

B1: recombinant, soluble SRCR trimer (HIS6-SRCR, MARCO residues 400-520) (domain or fragment, human, UniProt Q9UEW3 400-520, looked up)
chain: GVKGSSGEQGVKGEKGERGENSVSVRIVGSSNRGRAEVYYSGTWGTICDDEWQNSDAIVFCRMLGYSKGRALYKVGAGTGQIWLDNVQCRGTESTLWSCTKNSWGHHDCSHEEDAGVECSV
With B1, the “stoichiometry N” value was determined as 3.

The values are drawn from article PMC4980223 (Immunology and cell biology, 2016).
